Data: patent publication US7326418B2, “Identification of novel factors that block programmed cell death or apoptosis by targeting JNK” (University of Chicago, priority 2001, dated 2008)

Legend:
[1] = molecular target: T1, MKK3b (Homo sapiens, UniProt P46734); experiment: Kinase assay of immunoprecipitated FLAG-MKK3b with recombinant Gadd45β proteins; type: biochemical; settings: in vitro, even at high concentrations
T1 construct: expressed in transfected cells; host or cells: HEK-293; anti-FLAG immunoprecipitate
T1 sequence (P46734 1-347): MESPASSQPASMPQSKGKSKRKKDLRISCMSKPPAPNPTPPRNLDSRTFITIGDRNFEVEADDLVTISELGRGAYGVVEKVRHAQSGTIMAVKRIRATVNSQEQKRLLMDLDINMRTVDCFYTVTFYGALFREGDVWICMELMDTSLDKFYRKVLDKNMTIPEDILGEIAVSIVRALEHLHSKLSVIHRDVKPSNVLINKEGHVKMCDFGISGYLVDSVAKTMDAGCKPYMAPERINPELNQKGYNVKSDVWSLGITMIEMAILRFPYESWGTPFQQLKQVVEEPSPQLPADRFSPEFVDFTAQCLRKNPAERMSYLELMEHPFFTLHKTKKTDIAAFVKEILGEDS
Procedure: (§1) Next, the functional consequences, in vitro, of the physical interactions of Gadd45β with kinases in the JNK pathway were assessed. Murine and human, full-length Gadd45J3 proteins were purified from E. coli as GST-Gadd45β and His6-tagged Gadd45β (His6 disclosed as SEQ ID NO: 46), respectively, according to standard procedures. Prior to employing these proteins in in vitro assays, purity of all recombinant polypeptides was assured by >98%, by performing Coomassie blue staining of SDS polyacrylamide gels. Then, the ability of these proteins, as well as of control GST and His6-EF3 (His6 disclosed as SEQ ID NO: 46)proteins, to inhibit kinases in the JNK pathways was monitored in vitro. FLAG-tagged JNKK2, JNKK1, MKK3, and ASK1 were immunoprecipitated from transiently transfected 293 cells using anti-FLAG antibodies and pre-incubated for 10 minutes with increasing concentrations of recombinant proteins, prior to the addition of specific kinase substrates (i.e. GST-JNK1 with JNKK1 and JNKK2; GST-p38[…] with MKK3; GST-JNNK1 or GST-JNKK2 with ASK1). […] These findings indicate that, upon binding to Gadd45β, JNKK2 is effectively inactivated.
(§2) A question was whether Gadd45β inhibited active MKK7, in vitro. FLAG-MKK7 was immunoprecipitated from TNFα-treated or untreated 293 cells, and kinase assays were performed in the presence of purified His6-Gadd45β (His6 disclosed as SEQ ID NO: 46), GST-Gadd45β, or control proteins (FIG. 28d; see also FIG. 28g). […] Consistent with the in vivo findings (FIG. 27), the inhibitory activity of Gadd45β was specific. […] Indeed, the effects of Gadd45β on MKK7 phosphorylation by TNFα may be due inhibition of the MKK7 ability to auto-phoshorylate and/or to serve as substrate for upstream kinases. Altogether, the findings identify MKK7 as a target of Gadd45β, and of NF-[…]B, in the JNK cascade. Of interest, MKK7 is a selective activator of JNK, and its ablation abolishes JNK activation by TNFα. Thus, blockade of MKK7 is sufficient on its own to explain the effects of Gadd45β on JNK signaling—i.e. its specific and near-complete suppression of this signaling. […]

[2] = molecular target: T2, JNKK1/MKK4 (Mus musculus, UniProt P47809); experiment: Kinase assay of immunoprecipitated FLAG-JNKK1/MKK4 with recombinant Gadd45β proteins; type: biochemical; settings: in vitro, even at high concentrations
T2 construct: expressed in transfected cells; host or cells: HEK-293; anti-FLAG immunoprecipitate
T2 sequence (P47809 2-397): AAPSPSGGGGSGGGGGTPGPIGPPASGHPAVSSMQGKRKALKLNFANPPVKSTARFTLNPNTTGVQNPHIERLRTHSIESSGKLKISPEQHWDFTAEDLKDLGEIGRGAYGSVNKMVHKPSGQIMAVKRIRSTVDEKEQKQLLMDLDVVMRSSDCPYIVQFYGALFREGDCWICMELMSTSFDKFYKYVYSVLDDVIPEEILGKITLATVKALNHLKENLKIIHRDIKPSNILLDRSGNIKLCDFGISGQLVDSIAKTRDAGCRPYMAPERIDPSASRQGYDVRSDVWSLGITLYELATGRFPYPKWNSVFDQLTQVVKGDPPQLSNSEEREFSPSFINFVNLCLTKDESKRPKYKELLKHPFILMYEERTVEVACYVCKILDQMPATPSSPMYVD
Procedure: as §1, §2

Molecule	effect on MKK3/MKK3b kinase activity [1]	effect on JNKK1/MKK4 kinase activity [2]
Gadd45β: purified recombinant His6-tagged Gadd45β protein; also used generically for the recombinant Gadd45β proteins (protein, UniProt O75293 1-160, looked up, His6 tag, purified recombinant His6-tagged Gadd45β protein; also used generically for the recombinant Gadd45β proteins) Growth arrest and DNA …: MTLEELVACDNAAQKMQTVTAAVEELLVAAQRQDRLTVGVYESAKLMNVDPDSVVLCLLAIDEEEEDDIALQIHFTLIQSFCCDNDINIVRVSGMQRLAQLLGEPAETQGTTEARDLHCLLVTNPHTDAWKSHGLVEVASYCEESRGNNQWVPYISLQER	did not hamper	did not hamper
His6-Gadd45β: human full-length Gadd45β purified from E. coli as His6-tagged protein (protein, UniProt O75293 1-160, looked up, full-length His6 tag, human full-length Gadd45β purified from E. coli as His6-tagged protein) MTLEELVACDNAAQKMQTVTAAVEELLVAAQRQDRLTVGVYESAKLMNVDPDSVVLCLLAIDEEEEDDIALQIHFTLIQSFCCDNDINIVRVSGMQRLAQLLGEPAETQGTTEARDLHCLLVTNPHTDAWKSHGLVEVASYCEESRGNNQWVPYISLQER	neither GST-Gadd45β nor His6-Gadd45β (His6 disclosed as SEQ ID NO: 46) had significant effects	neither GST-Gadd45β nor His6-Gadd45β (His6 disclosed as SEQ ID NO: 46) had significant effects
GST-Gadd45β: full-length murine Gadd45β directly fused to GST, purified from E. coli (protein, left off: a dimerising Fc or GST, full-length murine Gadd45β directly fused to GST, purified from E. coli) MTLEELVASDNAVQKMQAVTAAVEQLLVAAQRQDRLTVGVYEAAKLMNVDPDSVVLCLLAIDEEEEDDIALQIHFTLIQSFCCDNDIDIVRVSGMQRLAQLLGEPAETLGTTEARDLHCLLVTNCHTDSWKSQGLVEVASYCEESRGNNQWVPYISLEER	neither GST-Gadd45β nor His6-Gadd45β (His6 disclosed as SEQ ID NO: 46) had significant effects	neither GST-Gadd45β nor His6-Gadd45β (His6 disclosed as SEQ ID NO: 46) had significant effects
